Assay results reported in patent CN114106162A (ANYUAN MEDICINE SCIENCE AND TECH SHANGHAI LIMITED COMPANY, dated 2022).

Assays:
[1] = target: T1, SARS-CoV-2 S1蛋白 (ACRO Biosystems) (SARS-CoV-2, UniProt P0DTC2 16-685); experiment: competition ELISA, S1 coated, HRP-hACE2-Fc as competitor
T1 construct: domain: S1

刺突S蛋白-鼠Fc融合蛋白(S-mFc) = 刺突S蛋白-鼠Fc融合蛋白(S-mFc) (SARS-CoV-2; mouse, UniProt P0DTC2 14-1213); experiment: FACS competition: antibody blocks binding of S-mFc to 293T-ACE2 cells

B1: 人源化抗体hS1B-82-5 (antibody, V domains shown)
VH: EVILSESGGGSVKPGGSLRLSCAASGFTFSSYAMSWIRQAPGKRLEWGSTINSGGNFIYYPDSVKGRFTISRDNAKNSLYLQMNSLRAEDTAVYFCGRHSGNYVDSAMDYWGQGTTVTVSS
VL: EIVLTQSPATLSVSPGERATLSCSASSSVSDMHWYQQKPGKSPKLLIYSTSNLASGVPSRFSGSGSGTEYTLTISSLQPEDVATYYCHQWSTWTFGGGTKVEIKR
notes: also called 抗SARS-CoV-2 S1人源化抗体; 人源化单克隆抗体hS1B-82-5
EC50 [1]: 0.166 µg/mL | IC50 (刺突S蛋白-鼠Fc融合蛋白(S-mFc)): 0.0193 µg/mL

B2: 鼠源单克隆抗体S1B-82-5 (antibody, V domains shown)
VH: EVILVESGGGLVKPGGSLKLSCAASGFTFSSYAMSWIRQTPEKRLEWGATINSGGNFIYYPDSVKGRFTISRDNAKNTLYLQMSSLRSEDTAMYFCGRHSGNYVDSAMDYWGQGTSVTVSS
VL: QIVLTQSPAIMSASLGEEITLTCSASSSVSDMHWYQQKSGSSPKLLIYSTSNLASGVPSRFSGSGSGTFYSLTVSSVEAEDAADYYCHQWSTWTFGGGTKLEIK
notes: also called 鼠源抗体S1B-82-5; 鼠抗S1B-82-5
IC50 (刺突S蛋白-鼠Fc融合蛋白(S-mFc)): 0.016 µg/mL
